In patent US20080032927A1 (published 2008):
Where two headings read alike, the source gives them in different places. Each block holds one molecule with its values, some of them ahead of it.

Columns and labels:
[1] = target: LEF1/TCF-transcriptional factors; experiment: cell-based or functional assay
[2] = target: LEF1/TCF-transcriptional factors; experiment: cell-based or functional assay; remark: listed apart in the source
TCF4 = target: T1, TCF4 (UniProt Q9NQB0 1-619, limits assumed); experiment: co-immunoprecipitation with anti-TCF4 beads
T1 construct: Endogenous protein of HCT116 cells; also called endogenous TCF4
Method: Co-immunoprecipitation-The affinity-protein G beads were prepared by mixing 20 μl of protein G plus-Agarose beads (Santa Cruz Biotechnology) with 1 μg of corresponding antibody. A total of 2×10⁶ of cells were lysed with 1× cells lysis buffer (Promega) containing 1× protease inhibitor reagent (Roche), incubated on ice for 30 minutes, sonicated briefly, and centrifuged at 12,000 g for 5 minutes at 4° C. The supernatants were further cleaned with 20 μl of untreated protein G plus-Agarose beads and 2 μg of pre-immune serum for 2 hours at 4° C. The supernatants were then mixed with 20 μl of prelabeled protein G plus-Agarose beads at 4° C. overnight. The beads were washed four times with PBS plus 0.2% NP40.
Xom binds to LEF1/TCF factors in vivo and in vitro-Binding of LEF1/TCFs to the promoter of TOPflash is required for the activation of the reporter construct; thus, the finding that expression of Xom activates TOPflash but not FOPflash raised the possibility that Xom activates the TOPflash reporter through interaction with LEF1/TCFs. This hypothesis was tested by determining whether Xom physically interacts with LEF1/TCFs. Co-immunoprecipitation experiments was carried out in HCT116 cells transiently transfected with mye-Xom. […] The in vivo association between Xom and TCF4 appears to be strong and could not be dissociated with 300 mM NaCl and 0.1% NP40. […]

T1 sequence (Q9NQB0 whole entry): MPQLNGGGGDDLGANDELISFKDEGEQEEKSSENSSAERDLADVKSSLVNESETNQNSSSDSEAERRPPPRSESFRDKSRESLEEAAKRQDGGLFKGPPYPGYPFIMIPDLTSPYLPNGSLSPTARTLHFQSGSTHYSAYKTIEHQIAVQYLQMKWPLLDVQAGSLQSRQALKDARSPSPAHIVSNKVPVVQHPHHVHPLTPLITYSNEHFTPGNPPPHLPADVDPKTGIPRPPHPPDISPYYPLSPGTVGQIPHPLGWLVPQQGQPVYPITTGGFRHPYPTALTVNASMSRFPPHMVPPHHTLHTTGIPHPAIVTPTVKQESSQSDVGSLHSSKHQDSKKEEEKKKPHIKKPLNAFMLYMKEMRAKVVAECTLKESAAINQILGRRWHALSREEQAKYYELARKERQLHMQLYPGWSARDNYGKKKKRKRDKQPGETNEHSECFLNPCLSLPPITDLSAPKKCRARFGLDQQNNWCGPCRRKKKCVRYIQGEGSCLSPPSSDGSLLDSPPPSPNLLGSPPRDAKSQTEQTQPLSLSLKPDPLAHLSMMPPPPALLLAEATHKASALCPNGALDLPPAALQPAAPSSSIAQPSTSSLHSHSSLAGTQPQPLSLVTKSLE

TOPflash reporter in 293T cells [1]: 10 fold | TOPflash reporter transcription in Xenopus embryos [1]: 7 fold
Molecule: Xom

TOPflash reporter in 293T cells [2]: 10 fold
B1: XomCD85 (protein)
chain: MTKAFSSVEWLAQSSRRSHREQPSKVDQRYSPYPSPSLPSWNSDVSPSSWNSQLSPDPDSAQVSPCPASAQVSPYSSDSEISLYSHEEEASFYGMDLNTSSSPGDNGLLHSEMVSVPDNIPRASSDEDAAKSAYSTSTDSGYESETSCSSSTAPEGDAISLSPNDTSDEEGKMGRRLRTAFTSDQISTLEKTFQKHRYLGASERQKLAAKLQLSEVQIKTWFQNRRMKYKREIQDGRPDSY

binding result (TCF4): no binding
B2: XomID110 (other)
chain: MTKAFSSVEWLAQSSRRSHREQPSKVDQRYSPYPSPSLPSWNSDVSPSSWNSQLSPDPDSAQVSPCPASAQVSPYSSDSEISLYSHEEEASFYGMDLNTSSSPGDNGLLHSEMVSVPDNIPRASSDEDAAYHPAQFFGVYGYAQQPTPVFQHAVQHPYPGYNPLMETLPGTMPYTMHPPAMDSMTPFNSQPFQMLYLPQQHLGQPLTYQEERPFVR
notes: Internal deletion mutant of Xom lacking aa 131-240, which includes the homeodomain; also called XomID110 (fusion of aa 1-130 and aa 241-326)
